1 molecule from patent US20230393125A1 (Hoffmann-La Roche, published 2023) can be followed below.

For this test, the target named is T1, recombinant cynomolgus CCL2 (cynomolgus monkey, UniProt P61274 24-99).
T1 construct: also called cyCCL2; cynomolgus monkey CCL2
The experiment in a line: Gyrolab sandwich assay; detection reagent.

Procedure: A Gyrolab™ based method was used in this example. Recombinant cynomolgus CCL2 samples were prepared in assay buffer (PBS, 0.1% (v/v) Tween-20, 1% BSA) and analyzed on a Gyrolab Xplore. […] All reagents and samples were transferred to a 96-well PCR plate and loaded into the instrument together with a Gyrolab BioAffy 200 nL disc (Gyros Protein Technologies AB). A three-step assay protocol (200-3W-001) was selected. […] Each reagent reaches the column at the same time after a short spinning step is applied to the disc. The columns were washed with PBS with 0.05 Tween after each step and finally laser induced fluorescence values were recorded within the instrument. A non-linear 4-parameter curve-fitting function (Wiemer-Rodbard) was applied to the averaged raw data to obtain a calibration curve.

B1: humanized anti-CCL2 antibody 11K2 (CCL2-0002) (antibody, V domains shown)
VH: QVQLVQSGAEVKKPGSSVKVSCKASGLTISDTYMHWVRQAPGQGLEWMGRIDPANGNTKFDPKFQGRVTITADTSTSTAYMELSSLRSEDTAVYYCARGVFGFFDYWGQGTTVTVSS
VL: DIQMTQSPSSLSASVGDRVTITCKATEDIYNRLAWYQQKPGKAPKLLISGATSLETGVPSRFSGSGSGTDYTLTISSLQPEDFATYYCQQFWSAPYTFGGGTKVEIK
modifications: Used as a digoxigenin or Alexa 647 conjugate; conjugation sites not stated.
notes: Detection reagent; also called Humanized 11K2; 11K2-Dig
Take B1: the binding result is recorded as “binds”.
